Laboratory results as given in patent US20250188457A1, “COMPOSITIONS AND METHODS FOR THE TREATMENT OF GLIOBLASTOMA BY INHIBITION OF THE TFPI2-CD51-STAT6 SIGNALING AXIS” (Northwestern University, priority 2023, published 2025).

Key:
Assay type in all cases: cell-based, human and mouse
[1] = system: SIM-A9, HMC3 microglia and PrhMG; assay: Flow cytometry for CD206 and ARG1 (microglia immunosuppressive polarization); settings: TFPI2 recombinant protein 20 ng/ml
Protocol: For membrane protein staining, the single-cell suspensions were washed with PBS and then incubated with fixable viability dye (Invitrogen, #5211229035) on ice for 10 min. Following washing with PBS, cells were incubated with the anti-CD16/CD32 cocktail (BioLegend, #103132) in 2% BSA PBS to block Fc receptors for 30 min on ice. Different antibody combinations, including Percp/Cy5.5 anti-mouse CD45 (BioLegend, #103132), AF488 anti-mouse CD3 (BioLegend, #100210), BV421 anti-mouse CX3CR1 (BD Bioscience, #567531), BUV395 anti-mouse CD4 (BD Bioscience, #740208), BV711 anti-mouse CD8 (BioLegend, #100747), PE/Cy7 anti-mouse/human CD11b (BioLegend, #101216), PE anti-mouse CD68 (BD Bioscience, #566386), PE anti-mouse PD1 (BioLegend, #135205), AF647 anti-mouse CD206 (BD Bioscience, #565250), AF647 anti-human CD206 (BioLegend, #321116), PE anti-human CD69 (BioLegend, #310906), PE/Cy7 anti-mouse CD69 (BioLegend, #104512), and BV650 anti-human HLA-DR (BioLegend, #307650) were added to cell suspensions for 30 min on ice. […] Samples were read in BD FACSymphony flow cytometer and analyzed in FlowJo v10.8.1.
Intracellular protein staining was performed separately or followed by cell surface marker staining. […] Then cell suspensions were rewashed in permeabilization buffer and read in BD FACSymphony flow cytometer.

[2] = system: PrhMG, HMC3 and SIM-A9 microglia; assay: Transwell migration assay of microglia; settings: TFPI2 recombinant protein 20 ng/ml
Protocol: For transwell migration assay, HMC3 microglia, SIM-A9 microglia, and PrhMG were suspended in serum-free culture medium and seeded into transwell 24-well plates with permeable polycarbonate membrane inserts (5.0 μm, Corning, #07-200-149). GSC conditioned media (CM), or basal cell culture medium with TFPI2 recombinant protein (BioVision, #7481-10) were added to the remaining receiver wells. The STAT6 inhibitor AS151749 (Selleck Chemicals, #S8685) was used to study the role of STAT6 in microglia migration. The CD51 inhibitor MK-0429 (MedChemExpress, #HY-15102) was used to study the role of CD51 in TFPI2-induced microglia migration. After 10 hrs, the migrated microglia were fixed and stained with crystal violet (Sigma, #C-3886). The number of transferred cells was counted using ImageJ (NIH, Bethesda, […]).

[3] = system: SIM-A9 and HMC3 microglia; assay: RT-qPCR for microglia marker expression; settings: TFPI2 recombinant protein 20 ng/ml
Protocol: Cells were pelleted, and RNA was isolated with the RNeasy Mini Kit (Qiagen, #74106). RNA was quantified by NanoDrop spectrophotometers and then reverse-transcribed into cDNA by using the All-In-One 5×RT MasterMix (Applied Biological Materials, #G592) in T00 Thermal Cycler (Bio-Rad). RT-qPCR was performed using SYBR Green PCR Master Mix (Bio-Rad, #1725275) in CFX Connect Real-Time PCR Detection System (Bio-Rad). The expression of each gene was normalized to housekeeping genes.

STAT6 = assay: Immunoblot and flow cytometry for P-STAT6 in microglia; settings: TFPI2 recombinant protein, indicated concentrations and time points
Protocol: The protein expression in cells was determined by western blotting analysis (Ref. 61; incorporated by reference in its entirety). Cells were homogenized in RIPA lysis buffer containing phosphatase/protease cocktail inhibitors (Cell Signaling Technology, #5870). The protein concentration was determined by BCA Protein Assay Kit (Thermo Fisher Scientific, #P123225). Protein solution was mixed with the Leammli sample buffer and heated at 95° C. before loading to SurePAGE gels (GenScript, #M00653). The gels were run at a constant voltage of 80 V and then transferred to 0.2 μm nitrocellulose membrane (Bio-Rad, #1620112) using the Trans-Blot Turbo system (Bio-Rad) with a preprogrammed standard protocol for 30 min. Nitrocellulose membrane was incubated with 5% dry milk to block any unspecific staining. […]

With `NC(=O)c1cnc(NCCc2ccc(O)c(Cl)c2)nc1NCc1ccccc1` [AS1517499] the “TFPI2-induced increase of immunosuppressive microglia (CD206 and ARG1 expression)” value ([1]; mouse and human microglia, AS1517499 25 nM) was “negated”, the “TFPI2-induced transwell migration of human and mouse microglia” value ([2]; AS1517499 at indicated concentrations) was “suppressed” and the “TFPI2-induced suppression of immunostimulatory microglia markers (MIF, IL23, CXCL11, IL6, TNFA, LFNG, HLA-DR)” value ([3]; AS1517499 25 nM) was “countered”.

B1: TFPI2 recombinant protein (tissue factor pathway inhibitor 2; BioVision, #7481-10) (ligand, UniProt P48307 23-235, looked up)
chain: DAAQEPTGNNAEICLLPLDYGPCRALLLRYYYDRYTQSCRQFLYGGCEGNANNFYTWEACDDACWRIEKVPKVCRLQVSVDDQCEGSTEKYFFNLSSMTCEKFFSGGCHRNRIENRFPDEATCMGFCAPKKIPSFCYSPKDEGLCSANVTRYYFNPRYRTCDAFTYTGCGGNDNNFVSREDCKRACAKALKKKKKMPKLRFASRIRKIRKKQF
notes: Bought recombinant protein added to microglia at 20 ng/ml; also called recombinant TFPI2; secreted TFPI2
B1 was tested, and the “immunosuppressive microglia (CD206 and ARG1 expression)” value [1] was “increased”, the “phosphorylation of STAT6 in human and mouse microglia” value (STAT6) was “increased” and the “migration of microglia (SIM-A9, HMC3, PrhMG)” value [2] was “dramatically increased”. The “expression of immunostimulatory microglia markers (RT-qPCR)” value [3] was “suppressed”.
